This experiment concerns the target T1, SynOCP1 lacking the N-terminal extension (ΔNTE-SynOCP1) (Synechocystis sp. PCC 6803, UniProt P74102 13-317).
T1 construct: Orange Carotenoid Protein of Synechocystis sp; PCC 6803 (Uniprot P74102) lacking residues M1-F12 from the N-terminus; also called SynOCP1 ΔNTE mutant; source: E. coli C41(DE3) synthesizing echinenone, purified (subtractive IMAC, SEC)
T1 sequence (looked up): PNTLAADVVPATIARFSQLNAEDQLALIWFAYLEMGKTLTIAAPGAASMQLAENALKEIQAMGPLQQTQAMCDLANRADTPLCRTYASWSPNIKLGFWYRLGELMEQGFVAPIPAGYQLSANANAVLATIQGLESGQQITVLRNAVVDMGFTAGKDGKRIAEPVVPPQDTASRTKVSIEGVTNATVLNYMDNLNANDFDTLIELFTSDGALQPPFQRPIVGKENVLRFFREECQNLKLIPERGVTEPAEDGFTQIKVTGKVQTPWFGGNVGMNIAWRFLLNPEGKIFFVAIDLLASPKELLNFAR
The experiment is described as follows: SEC; spectrochromatography on Superdex 200 Increase 5/150 with diode-array detection; ΔNTE-OCP 20 μM mixed with FRP 40 μM; 20 mM Tris-HCl pH 7.6, 150 mM NaCl; absorbance spectrum ('oranging') read in the same runs. The conditions noted are these: both partners purified. On the technique in general: Size exclusion chromatography separates by hydrodynamic size, large species first.

B1: Fluorescence Recovery Protein from Synechocystis (SynFRP) (natural protein, UniProt P74103 1-109, looked up)
chain: MLQTAEAPWSQAETQSAHALFRKAYQRELDGLLATVQAQASQITQIDDLWKLHDFLSAKRHEIDGKYDDRQSVIIFVFAQLLKEGLVQAEELTFLAADKQSKIKALARL
notes: Fluorescence Recovery Protein of Synechocystis (Uniprot P74103); source: E. coli C41(DE3), purified (subtractive IMAC, SEC)
B1: the binding result is “binds”.
